Measurements reported in the DeepSol protein solubility set.

Assay: soluble on expression in E. coli; label from the status in PepcDB or PDB records

Sequence | soluble on expression in E. coli
DSLKAEVNTLFARFDEQPLAAASIAQVHTAALFDGREVIVKVTRPNIRTQILQDFEIISWLGQSLESRLEAARALHLSEIIQDYRQIILNELDLTLEADNTRRMRHYFTGSSMMYVPEVY | not soluble
MSLIPKFREFDRERHRTDYQKGMSYAEQQDFDMGFTIWFDHIEDLDLIEKDGTINRIVMMSTGLKDKNVKEIYESDIVRNLYGELYVVEWLDGSFVLTEFYNGGYDHYIIDSSTEYEVLGNIYENPELLEDDNHASNEGHHHHHH | soluble
MNALDLDVLQHARDWLASGRRVHLVTVVQTWGSAPRQAGAMLAVRDDGQVVGSVSGGCIEDDLIARARAGTLPERAERLTYGVTRDEATRFGLPCGGTLRLVAEPLAPRDAWLDEVLQAIAEHRLVRRTIDLHTGAAALEAAAPAEGPDFDGRMFRAVYGPHWRLLIIGANQTAQVRADIAATLDFQVIVCDPREEFHAAWHAPHATLVTTMPDDTVLEIGTDERTAIVALTHDPKLDDMVLLEALKSRAFYVGALGSRANQEKRRERLRLFDLGDEDIARLRGPVGLPIASRTPAEIAVAVAAELVWVRNTLGDREPSGAPLPAALAPAR | not soluble
MAHHHHHHMSALAKKMMEKYGWKEGEGLGKERSGIKSYVKVTRRDPHTATGLGHAADPAQGGSLASTHAVELDAIYGQLHKETRKRQRQSSKARVDQGDTSEDEVDNGGELSDVSSTNSGASSSSSADSKSEGKAAVAARAAVKRQRRAPSSSPSNSGNDGDDRTDSKRSKGEHIGDVTRMSDKELFQRCGGVRLGRAGRHRLFDGKLKRIQDSS | soluble
MSLDYANGNHVLIIPKYKGSLLFTKHKIRGIEFPGGKREKGEASETAAAREVFEETGATIKYCEYIAQYKVDRQIGMSFTKDVFMVEIEAITEQPDYFETDGPLLYKSLSEIPEDKKSYLLKDPAILQCLERVIELGFYSEGHHHHHH | not soluble
MTSPASCSPPNEKRTGSPFPPESRSLPSTMEMTMNTIFRPAPHPLPDAPFYTPLGNECVLFESAWVRQLPLLLKGPTGCGKTRFVSHMAAKLGLPLSTISCHDDLAAADLTGRYLLKGGETVWMDGPLTRSVRQGGICYLDEIVEARKDVAVVLHPLTDDRRILPLERTGEVLEAPSGFMLVVSYNPGYQNLLKSLKPSTRQRFVAIEFDFLPKEQEIAVVSHESGLDARDVEPLVDLAHRLRGLKGHDLEEGVSTRLLVYCASLIDTGLPARQAVRATMIEPLTDEPDVKAALHEVADAIIRLEHHHHHH | not soluble
MRFLTAGESHGPELLAIIEGLPAGLPLSEEDINPWLEKRQKGYGRGRRMVIERDRVEFRAGVRGGRTTGAPVALAIKNADFKNWAEIMDPAPGNWPRKRALTAARPGHADLAGGMKYGHKDLRDVLERASARETAMRVAVGAVALKLLSLLGVEGVGYVPGMAGVWAKVPFSWDLVPRIEESPLRMTDPEAEAEAIRRIDQAKAEGDTLGGIIEARFRGLVPGLGSHVHWDRKLDGRLAQMALSIPAVKGVEIGPAFENAMKRGSEVHDAIYWSPERGFYRKTNRAGGLEGGMTTGEELVVRAALKPIATLMKPLPTVDVVTHEPKDAARERSDTTAVPAASVILCALSAIVLAQAYLEKFGGDTMEEIQERVERYRERVRAY | soluble
MSLKKRIPTLLATMIATALYSQQGLAADLASQCMLGVPSYDRPLVQGDTNDLPVTINANHAKGDYPDDAVFTGSVDIMQGNSRLQADEVQLHQKEAPGQPEPVRTVDALGNVHYDDNQVILKGPKGWANLNTKDTNVWEGDYQMVGRQGRGKADLMKQRGENRYTILDNGSFTSCLPGSDTWSVVGSEIIHDREEQVAEIWNARFKVGPVSIFYSPYLQLPVGDKRRSGFLIPNAKYTTTNYFEFYLPYYWNIAPNMDATITPHYMHRRGNIMWENEFRYLSQAGAGLMELDYLPSDKVYEDEHPNDDSSRRWLFYWNHSGVMDQVWRFNVDYTKVSDPSYFNDFDNKYGSSTDGYATQKFSVGYAVQNFNATVSTKQFQVFSEQNTSSYSAEPQLDVNYYQNDVGPFDTRIYGQAVHFVNTRDDMPEATRVHLEPTINLPLSNNWGSINTEAKLLATHYQQTNLDWYNSRNTTKLDESVNRVMPQFKVDGKMVFERDMEMLAPGYTQTLEPRAQYLYVPYRDQSDIYNYDSSLLQSDYSGLFRDRTYGGLDRIASANQVTTGVTSRIYDDAAVERFNISVGQIYYFTESRTGDDNITWENDDKTGSLVWAGDTYWRISERWGLRGGIQYDTRLDNVATSNSSIEYRRDEDRLVQLNYRYASPEYIQATLPKYYSTAEQYKNGISQVGAVASWPIADRWSIVGAYYYDTNANKQADSMLGVQYSSCCYAIRVGYERKLNGWDNDKQHAVYDNAIGFNIELRGLSSNYGLGTQEMLRSNILPYQNTLEGHHHHHH | soluble
GPHSMRYYETATSRRGLGEPRYTSVGYVDDKEFVRFDSDAENPRYEPQVPWMEQEGPEYWERITQVAKGQEQWFRVNLRTLLGYYNQSAGGTHTLQRMYGCDVGSDGRLLRGYEQFAYDGCDYIALNEDLRTWTAADMAAQITRRKWEQAGAAEYYRAYLEGECVEWLHRYLKNG | soluble
MSLQSSIYRIRHLAKPAYREEFKGDIECSTAAYKEVLEDTSTDSTSKLPLEAKFGKMSIIKLVLLLIISTIIYANDKNISNLHITSDSLIIDRTKQKAAYLGNVIVYFDNAILRTKELYIFYKTIDEKQTIDHIVVPTKLTVERKINNELLLADSAKYFCDNKQLILLGNVILQRDDNVLKTNKLIYYVDIIKK | not soluble
ARLGNWEFDLETNVFTCSEESCRIFGIRDHRQGKSHRALMRRVHPEDRVTVKKAIFQAFRTGVGYCMDHRIVLDDGVERIVSQHAELLSADDGRTSRLVGTVHDIT | not soluble
MMVYQRPVFTVISLLRIRNREEAKLVLIGAVVVYRNFVEQTLADAQKNWVKSLVLYDDPGDAVTGILTWFSRYACLHGPRLGPLDTIAVNDNPLYIYCPRRKLEEYAKERIVSFHSEIGSVVCSMSPFDAGVTREKVRYGHNLISPGSCLLPDALEAYVAFLPSKSFLKLPYSVYEVHNDRYVHKFFALLPGSRFHFEVVAVGLAYPAAKKRPSGLGILRCCFTGKTNTCLLEHHHHHH | soluble
MTPIEAKFARLSTDHAPDQEVRQGNAGLDGLLRGDTLPGTPVDFSHGDVNTSAFAPTPGSLQEFVQGVERGGEQAYTEYRGAADLRLRVAAHLAEFTGAPVDGANELIITPGTQGALFLAIASSVTAGDKVAIVRPDYFANRKLVEFLGDEIVPVDMRHLERDSGAGLDLDQLEAAFKAGVRTFLFSNPNNPAGVVYSPEEIAQIADLARHYDATVIVDQLYSRLLYTGTRYTHLRALPQAPANVITIMGPSKTESLSGYRLGVAFGAAHLIDRMEKLQAIVSLRAPGYCQAVLRTWFQEPAGWMNERIAQHQAIRDDLIRVLRAVPGLAVRAPEAGSYLFPRLPRLAVGLHDFVRILRTQAGVTVTPGTEFSPHADDSIRLNFSQNHAAAVQAIERTAQLIERYRA | not soluble
GPGSMSVTIYGIKNCDTMKKARIWLEDHGIDYTFHDYKKEGLDAETLDRFLKTVPWEQLLNRAGTTFRKLPEDVRSNVDAASARELMLAQPSMVKRPVLERDGKLMVGFKPAQYEAYFKL | soluble
MADAAPQLGKRKRELDVEEAHAASTEEKEAGVGNGTCAPVRLPFSGFRLQKVLRESARDKIIFLHGKVNEASGDGDGEDAVVILEKTPFQVEQVAQLLTGSPELQLQFSNDIYSTYHLFPPRQLNDVKTTVVYPATEKHLQKYLRQDLRLIRETGDDYRNITLPHLESQSLSIQWVYNILDKKAEADRIVFENPDPSDGFVLIPDLKWNQQQLDDLYLIAICHRRGIRSLRDLTPEHLPLLRNILHQGQEAILQRYRMKGDHLRVYLHYLPSYYHLNVHFTALGFEAPGSGVERAHLLAEVIENLECDPRHYQQRTLTFALRADDPLLKLLQEAQQS | soluble
MVCSGAPVALIPTSSGAIMLDYPSMRAVALVARTGSFEKAAQVLCVTPSAVSQRIKQLEERLGVVLIVRGNPCVATEKGEWLCRHMDHVGMLESELFRQLPALTEAGDAQERVTLNIATNADSLGTWFLDAVSKFTGGSDYLVNIAVDDQDHTVEWLRGGRVLAAVTAHDKPVQGCRVTPLGVLRYHATASPDFMARHFADGVTPAALARAPGLTFNQKDRLQASWIRTALGEDVSYPTHWLPSTDGFVKASLAGMGWGLNPVQLVAEHLAAGRLVELMPGTPLDIPLYWQVNRLAAERLAGLTANMVGTARVVLMPVG | soluble
MSLKYNDNFQTILRHGVEKQVALLDADIFMENGQDDVELQMRQFRNLVNSKVDAIVVAMVNGKSAAEMMRLANEAKVPLVFVNRNPEPAKWPALTAFVGSDELESGTLQMEELARRAGYKGNVVILVGDPSNKSSVMRTEDVEKVVAKYPNMKVVQKKIGNWERSQAATIVIDWVKQGVDFSIVAANNDEMAIGAIMGLEKAGKNARDYLVGGIDGTPDGLKLMAEGKMAVSVFQDAVGQANGAVDAALSMARGETLASPVIWVPFKLITPENRQQFEEGHHHHHH | soluble
MDLFRKPKKRNAPVVRKKESSSDEDQDSEVKDVIQKRRRTNPMVQSTKQLDASTRRADNSSDDSDDSDDNQDIAVATHSFAASGDAGPSGPRDQGATATLEVDTDYSHDAQAQFERVQQQLKEGVEKDGKILYKGSALYGAKEAKDTAKGNAASGYNRVGPVRAPQFLRQTVRWDFAPDICKDYKETGFCTFGDSCKFVHDRSDYKHGWEIDEEYEAGKYGAEDDANYEIHEGDDTFPEDCFICGNPFVDPIVTKCKHYFCTGCALKSFQKSSKCPICQQNTENIMNTAKELLTYLKRKKQQQKQEAEKQEEEKDSDDDEKPHECDDHHHHDHEDEPEEPENDSNVPEAEEKSDEEQEIMMEDVEGLEGGENDSESDDDDAEKD | soluble
MDMKRRIHLELRNRTPAAVRELVLDNCKAMDGKIEGLTDEFVNLEFLSLISVGLFSVSDLPKLPKLKKLELSENRIFGGLDRLAEELPSLTHLNLSGNNLKDISTLEPLKRLDCLKSLDLFGCEVTNRSDYRETVFRLLPQLSYLDGYDREDQEAPDSDVEVDSVEEAPDSDGEVDGVDKEEEDEEGEDEEEEEDEDGEEEEDEDEEDEDEDEDVEGEDDEDEVSGEEEEFGHDGEVDEDEEDEDEDEDEEEEESGKGEKRKRETDDEGEDD | soluble
MGGSHHHHHHMASSVPIPGIKDISKLKFFYGFKYLWNPTVYNKIFDKLDLTKTYKHPEELKVLDLYPGVGIQSAIFYNKYCPRQYSLLEKRSSLYKFLNAKFEGSPLQILKRDPYDWSTYSNLIDEERIFVPEVQSSDHINDKFLTVANVTGEGSEGLIMQWLSCIGNKNWLYRFGKVKMLLWMPSTTARKLLARPGMHSRSKCSVVREAFTDTKLIAISDANELKGFDSQCIEEWDPILFSAAEIWPTKGKPIALVEMDPIDFDFDVDNWDYVTRHLMILKRTPLNTVMDSLGHGGQQYFNSRITDKDLLKKCPIDLTNDEFIYLTKLFMEWPFKPDILMDFVDMYQTEHSG | soluble
